{"source": "patent US20160230173A1", "molecular_target": "T1, Wild-type glucocorticoid receptor, Myc-DDK tagged NR3C1 (Origene catalog # RC220189), substrate of the CASP1 enzymatic assay", "T1 chain": "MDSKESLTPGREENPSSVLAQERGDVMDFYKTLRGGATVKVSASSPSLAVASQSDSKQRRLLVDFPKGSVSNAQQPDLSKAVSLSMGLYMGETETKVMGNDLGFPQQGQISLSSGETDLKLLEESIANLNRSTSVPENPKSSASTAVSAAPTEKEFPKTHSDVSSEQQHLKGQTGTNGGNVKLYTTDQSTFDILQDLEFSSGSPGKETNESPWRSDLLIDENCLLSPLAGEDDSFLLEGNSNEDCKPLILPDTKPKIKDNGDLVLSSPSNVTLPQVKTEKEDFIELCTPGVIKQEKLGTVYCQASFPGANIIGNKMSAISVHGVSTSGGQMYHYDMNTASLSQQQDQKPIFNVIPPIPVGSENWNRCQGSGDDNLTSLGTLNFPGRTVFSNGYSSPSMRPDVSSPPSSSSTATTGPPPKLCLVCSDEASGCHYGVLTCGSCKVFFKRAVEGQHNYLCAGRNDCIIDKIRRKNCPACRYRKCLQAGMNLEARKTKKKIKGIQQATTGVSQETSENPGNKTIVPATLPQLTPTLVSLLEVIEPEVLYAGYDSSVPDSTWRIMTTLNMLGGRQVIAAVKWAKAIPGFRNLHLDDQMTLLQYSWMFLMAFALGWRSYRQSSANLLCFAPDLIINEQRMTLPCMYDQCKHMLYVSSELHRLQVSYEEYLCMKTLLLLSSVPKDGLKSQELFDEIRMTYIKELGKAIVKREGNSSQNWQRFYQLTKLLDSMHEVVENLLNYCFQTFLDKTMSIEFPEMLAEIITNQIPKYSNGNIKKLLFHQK"}
{"protein": "Recombinant human CASP1 (Enzo Life Sciences CASP1 assay kit for drug discovery, catalog number BML-AK701-0001) (protein) NPAMPTSSGSEGNVKLCSLEEAQRIWKQKSAEIYPIMDKSSRTRLALIICNEEFDSIPRRTGAEVDITGMTMLLQNLGYSVDVKKNLTASDMTTELEAFAHRPEHKTSDSTFLVFMSHGIREGICGKKHSEQVPDILQLNAIFNMLNTKNCPSLKDKPKVIIIQACRGDSPGVVWFKDSVGVSGNLSLPTTEEFEDDAIKKAHIEKDFIAFCSSTPDNVSWRHPTMGSVFIGRLIEHMQEYACSCDVEEIFRKVRFSFEQPDGRAQMPTTERVTLTRCFYLFPGH", "values": [{"measurement": "cleavage of GR in CASP1 enzymatic assay (western blot)", "result": "enzymatic assays were performed that revealed glucocorticoid receptor (NR3C1) cleavage by recombinant CASP1"}]}
